Measurements taken from US20140294821.

Legend:
[1] = tested on: rFVIIIFc (recombinant B-domain deleted human FVIII-Fc monomer hybrid), drug substance
[2] = tested on: single chain rFVIIIFc (purified non-processed isoform of rFVIIIFc)
[3] = tested on: rBDD FVIII (recombinant B-domain deleted FVIII lacking Fc moieties)

With activated protein C the “FXa generation rate after thrombin activation and incubation with APC” value (“FXa generation rate … with APC” below) [1] was “Treatment with APC for 90 min led to a significant decrease in FXa generation rates, similar to non-activated samples, and these results were similar for rFVIIIFc DS, rBDD FVIII, and single chain rFVIIIFc”, the “FXa generation rate … with APC” value [2] was “Treatment with APC for 90 min led to a significant decrease in FXa generation rates, similar to non-activated samples, and these results were similar for rFVIIIFc DS, rBDD FVIII, and single chain rFVIIIFc” and the “FXa generation rate … with APC” value [3] was “Treatment with APC for 90 min led to a significant decrease in FXa generation rates, similar to non-activated samples, and these results were similar for rFVIIIFc DS, rBDD FVIII, and single chain rFVIIIFc”.
In the case of human α-thrombin, the “release rate (RU/s) of rFVIIIFc from immobilized vWF against time, by α-thrombin concentration” value [1] is reported as “peak release rate grows and comes earlier with rising α-thrombin: uppermost trace (20 U/mL) peaks at about 145 RU/s near 3 s at 25 °C and at about 205 RU/s near 2 s at 37 °C”, the “release rate (RU/s) of SC rFVIIIFc from immobilized vWF against time, by α-thrombin concentration” value [2] is reported as “peak release rate grows with rising α-thrombin: uppermost trace (20 U/mL) peaks at about 112 RU/s near 3 s at 37°C; the 25 °C panel as drawn peaks at about 145 RU/s near 3 s and looks the same as the rFVIIIFc 25 °C panel, which does not agree with Figure 16E (about 82 RU/s at 20 U/mL)” and the “loss of SPR response of vWF-bound rBDD FVIII after α-thrombin (double reference-subtracted release phase)” value [3] is reported as “response falls faster and deeper with rising α-thrombin (0.005 to 20 U/mL): at 20 U/mL to about -415 RU at 120 s at 25 °C and to about -425 RU at 37°C; the lowest concentrations stay within about -60 RU of 0”. For the same substance, the “release rate (RU/s) of rBDD FVIII from immobilized vWF against time, by α-thrombin concentration” value [3] was “peak release rate grows and comes earlier with rising α-thrombin: uppermost trace (20 U/mL) peaks at about 105 RU/s near 2 s at 25 °C and at about 157 RU/s near 2 s at 37 °C”.
For activated Factor IX, the “FXa generation rate (nM/min) against FIXa concentration (Xase complex on phospholipid vesicles)” value [1] was “FVIIIFc (circles, dashed Kd fits, two runs): rate rises from about 0.2 nM/min at about 0.25 nM FIXa to about 2.8 to 3.2 nM/min at 4 to 8 nM; the fits still rise at 8 nM (about 3.3), no upper plateau in the range shown”, the “FXa generation rate (nM/min) against FIXa concentration (Xase complex on phospholipid vesicles)” value [3] was “BDD FVIII (triangles, solid Kd fits, two runs): rate rises from about 0.2 nM/min at about 0.25 nM FIXa to about 2.5 to 2.7 nM/min at about 5.6 nM, points at 8 nM about 2.0 to 2.1; the fits still rise at 8 nM (about 2.5 to 2.6), no upper plateau in the range shown” and the Km (nM) (called Kd in the text) of FXa generation rate as a function of FIXa concentration (thrombin-activated FVIII, 25% PS-75% PC vesicles) [3] was 2.5 nM. It also gave a Vmax (nM/min) of FXa generation rate as a function of FIXa concentration [3] of 4 nM/min.
